In patent US20180028693A1:

Molecular target: GvpA of Anabaena flos-aquae gas vesicles (GvpA-based shell of urea-stripped Ana GVs) (Anabaena flos-aquae) (UniProt P10397)
Assay: SDS-PAGE of ST-Ana GVs against a standard curve of GvpC-ST

UniProt P10397, sequence (P10397 2-71): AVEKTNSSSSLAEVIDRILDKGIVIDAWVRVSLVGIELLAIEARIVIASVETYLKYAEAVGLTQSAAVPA

B1: GvpC-SpyTag (GvpC comprising a SpyTag fused to the C-terminus, and a His-tag fused to the C-terminus of the SpyTag) (protein)
chain: MGISLMAKIRQEHQSIAEKVAELSLETREFLSVTTAKRQEQAEKQAQELQAFYKDLQETSQQFLSETAQARIAQAEKQAQELLAFHKELQETSQQFLSATAQARIAQAEKQAQELLAFYQEVRETSQQFLSATAQARIAQAEKQAQELLAFHKELQETSQQFLSATADARTAQAKEQKESLLKFRQDLFVSIFGSGAHIVMVDAYKPTKGSGLEHHHHHH
  SpyTag functionalities per GV: 1000 per GV
